This note sets out measurements from paper PMC6545883.

The Vmax is the rate approached at saturating substrate. Usually kcat stands for the maximal rate divided by the concentration of active sites. For orientation: kcat/Km means the turnover number divided by the Michaelis constant.

This data set has as its system NC(=O)c1ccc[n+]([C@@H]2O[C@H](COP(=O)(O)OP(=O)(O)OC[C@H]3O[C@@H](n4cnc5c(N)ncnc54)[C@H](OP(=O)(O)O)[C@@H]3O)[C@@H](O)[C@H]2O)c1. Kind of data set: purified protein. The conditions noted are these: varied: cofactor.

PtmO8 (Streptomyces platensis): the Km result is on record as “(1.11 ± 0.11) × 10^3 µM”, the Vmax came to 3.7 µM/min, the kcat worked out at 110 s⁻¹ and the catalytic efficiency (kcat/Km) stood at 100000 M⁻¹ s⁻¹.
